Measurements from patent US20240026407A1, “MODIFICATION OF SAPONINS” (GLAXOSMITHKLINE BIOLOGICALS SA, priority 2020, published 2024).

Columns and labels:
Type in all cases: biochemical, Quillaja saponaria
[1] = Experiment 4-2: screening of glucosidases for deglycosylation with purified QS-18 (1 mg/ml) at pH 6 and 30 deg C; conditions: pH 6, 30 degC, 18 hrs, clarified lysate, LCMS/MS
Summary of the method: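 Clarified lysates of glucosidase-expressing cells in 100 mM potassium phosphate pH 6 were incubated 18 h at 30 °C with QS-18 at 1 mg/ml final. Reactions quenched with MeCN; deglycosylation activity determined by LC-MS/MS.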

[2] = Experiment 4-1: screening of glucosidases for deglycosylation with purified QS-18 (0.04 mg/ml) at pH 7.5 and room temperature; conditions: pH 7.5, room temperature, 20 h, clarified E. coli lysate, QS-18 2150 to QS-21 1988 by LCMS/MS
Summary of the method: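 Candidate glucosidases expressed in E. coli BL21(DE3) (pET24b+, autoinduction, 20 °C for 20 h); clarified lysates in 100 mM potassium phosphate pH 7.5 incubated with QS-18 (0.04 mg/ml final) 20 h at room temperature. Quenched with MeCN, analysed by LC-MS/MS for % conversion; hits >3 S.D. above negative control.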

[3] = Experiment 4-4: screening of glucosidases for deglycosylation of QS-18 in crude bark extract (1 in 20 dilution) to QS-21; conditions: CBE 1 in 20 dilution, pH 6, 25 degC, 18 hours; % conversion of Middle Peak by UV HPLC
Procedure: Lysates were prepared as in Experiment 4-2.
Crude bark extract (CBE) was adjusted to pH 6 by dropwise addition of 2M NaOH with stirring. 25 uL of clarified lysate was transferred to a reaction plate, 22.5 ul of 100 mM potassium phosphate buffer pH 6 was added, 2.5 ul CBE at pH 6 was added. Reaction plates were sealed, incubated at 25 degC with shaking for 18 hours, then quenched by addition of 50 uL acetonitrile (MeCN). Quenched reaction plates were re-sealed and incubated at 20 degC with shaking for 10 min. The reaction plates were centrifuged (10 min, 4 degC) and analysed by UV HPLC with the method below:
Three key peaks of interest are apparent using this chromatography: Left Peak (retention time approximately 2.30-2.35 min) comprising mainly QS-17 family components; Middle Peak (retention time approximately 2.37-2.42 min) comprising mainly QS-18 family components and desglucosyl-QS-17 family components; and Right Peak (retention time approximately 2.44-2.50 min) comprising mainly QS-21 family components. Peak identity was supported by MS/MS.
Enzyme activity is calculated as the % conversion of the Middle Peak present in the crude bark extract: […]

B1: 350 (protein)
chain: MIDDILDKMTLEEQVSLLSGADFWTTVAIERLGVPKIKVTDGPNGARGGGSLVGGVKSACFPVAIALGATWDPELIERAGVALGGQAKSKGASVLLAPTVNIHRSGLNGRNFECYSEDPALTAACAVAYINGVQSQGVAATIKHFVANESEIERQTMSSDVDERTLREIYLPPFEEAVKKAGVKAVMSSYNKLNGTYTSENPWLLTKVLREEWGFDGVVMSDWFGSHSTAETINAGLDLEMPGPWRDRGEKLVAAVREGKVKAETVRASARRILLLLERVGAFEKAPDLAEHALDLPEDRALIRQLGAEGAVLLKNDGVLPLAKSSFDQIAVIGPNAASARVMGGGSARIAAHYTVSPLEGIRAALSNANSLRHAVGCNNNRLIDVFSGEMTVEYFKGRGFESRPVHVETVEKGEFFWFDLPSGDLDLADFSARMTATFVPQETGEHIFGMTNAGLARLFVDGELVVDGYDGWTKGENFFGTANSEQRRAVTLGAARRYRVVVEYEAPKASLDGINICALRFGVEKPLGDAGIAEAVETARKSDIVLLLVGREGEWDTEGLDLPDMRLPGRQEELIEAVAETNPNVVVVLQTGGPIEMPWLGKVRAVLQMWYPGQELGNALADVLFGDVEPAGRLPQTFPKALTDNSAITDDPSIYPGQDGHVRYAEGIFVGYRHHDTREIEPLFPFGFGLGYTRFTWGAPQLSGTEMGADGLTVTVDVTNIGDRAGSDVVQLYVHSPNARVERPFKELRAFAKLKLAPGATGTAVLKIAPRDLAYFDVEAGRFRADAGKYELIVAASAIDIRASVSIHLPVDHVMEP
modifications: Rhizobium radiobacter
[1]
  Expt 4-2 % conv: 0.7%
[2]
  Expt 4-1 % conv: 2.6%
[3]
  Expt 4-4 % conv: <3%

B2: 234 (protein, listed as Sphingobium chlorophenolicum)
chain: MTFPRSLFLASTILAFHCNPSFARNESPAKAIERADKTLKAMTPEEKTILTHGIMPLKILPNSPEPPAEAIPGAGYIKGIPRLGVPALYETDASLGVSYVFGLRKDGATALPSGLAQASTWNPALIEKAGRMIGAETRAKGFNVLLAGGVNLMRDPRNGRNFEYLGEDPLLAGTLVGHAIRGIQSNHIISTIKHFAFNGQETARKLVDSKISAANAHESDLLAFKIGIEIGDPGSVMCAYNKVNGHSACDNNWLLNTVLKHDWGYKGFVMSDWGAVPSLGAALNGLDQQSGEQLDTAVFFGDTLAAAAKSNPVYAKRLDDMNRRILWAIYNNGLDANPAKPGGVIDFKAHGDIAEQVARQGIVLLRNERGVLPLAASTKRIAVIGGYANSGVLSGAGSSQVQAEGGPAVYIPAGNGDENSSFIAESYHNSVPLKALRAAAPNAEITYRNGRYIAEAVAQAKKSDVAIVFATQWTSEGFDVPDMSLPNGQDALLAAVAAANPNTVVVLETGGPVMMPWLDSTAAVIEAWYPGARGAEAIAAVLTGKVNPSGKLPVTFPAHKDQLPRAEVDGMDSTEPSFLGMPDLKGQALVADYDIEGSNIGYRWNALKGNKALFPFGHGLSYTSFAASGLKTDGARASARITNTGKADGATIAQLYLVSRTGKPARRLVSFQRVELVAGQSKPLAMTIDPRLLGDWRDGNWTIVAGDYGFALGEDAEHLGPVTTVRLKGRTWRD
[1]
  Expt 4-2 % conv: 0.7%
[2]
  Expt 4-1 % conv: 2.5%
[3]
  Expt 4-4 % conv: <3%
